Data taken from patent US20090060916A1 (published 2009).
“And” between values parts separate entries of the source, which are not always exact repeats. Identical values can stand only once.

Assays:
[1] = target: variant IL-13 (R130Q) (human), P35225; experiment: cell-based or functional assay
[2] = target: T1, human IL-13 (human, UniProt P35225 35-146, biotinylated on the Biacore chip); experiment: IL-13 receptor alpha2 RBA, competition
T1 construct: also called hIL-13; recombinant human IL-13
Description: (§1) The plate was incubated for seven hours before being read in the 8200 cellular detection system (Applied Biosystems).

[3] = target: T1, human IL-13; experiment: IL-13 receptor alpha2 RBA, competition; remark: listed apart in the source
Description: as §1

[4] = target: T1, human IL-13; experiment: cell-based or functional assay
[5] = target: T1, human IL-13; experiment: Biacore SPR, IL-13 surface
[6] = target: T1, human IL-13; experiment: IL-13 sandwich ELISA, competition with coating antibody
Description: (§2) A MAXISORP™ plate (high protein binding ELISA plate, Nunc, Denmark) was coated overnight with 2.5 μg/ml coating antibody (Module Set, Bender MedSystems, Vienna, Austria), then washed once with 0.05% (v/v) Tween 20 in PBS before blocking with 0.5% (w/v) BSA 0.05% (v/v) Tween 20 in PBS. […] The plate was then incubated with TMB substrate (KPL, Gaithersburg, USA), and the reaction was stopped by the addition of HCl and the absorbance read at 450 nm.

[7] = target: T1, human IL-13; experiment: Biacore SPR, biotinylated human IL-13 on SA chip
Description: (§3) 50 to 100 ul of the diluted supernatant was injected (kininject) at 50 ul/min flow rate, followed by a 5 minute dissociation phase. Association and dissociation off-rates and constants were calculated using BIAevaluation software v4.1 (Biacore).

[8] = target: T1, human IL-13; experiment: cell-based or functional assay; remark: listed apart in the source
[9] = target: T2, cynomolgous IL-13 (cynomolgous, UniProt Q0PW92 19-132, The Biacore assay used biotinylated cIL-13 according to our card. The biotin cannot be carried in the letters.); experiment: cell-based or functional assay
[10] = target: T2, cynomolgous IL-13; experiment: Biacore SPR, biotinylated cynomolgous IL-13 on SA chip
Description: as §3

[11] = target: T1, human IL-13; experiment: cell-based or functional assay; remark: listed apart in the source
[12] = target: T1, human IL-13; experiment: IL-13 RBA
[13] = target: T3, human IL-4 (human, UniProt P05112 25-153, biotinylated in the receptor binding assay and on the Biacore chip); experiment: IL-4 RBA: ELISA, IL-4R/Fc coated, biotinylated IL-4
T3 construct: also called interleukin-4; biotinylated IL-4
T3 sequence (looked up): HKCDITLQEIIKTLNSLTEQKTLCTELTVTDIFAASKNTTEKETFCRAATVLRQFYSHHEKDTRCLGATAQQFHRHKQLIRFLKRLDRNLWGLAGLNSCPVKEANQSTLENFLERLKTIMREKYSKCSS
From the text: (§4) The wells were washed three times with 0.1% (v/v) Tween 20 in PBS, followed by three washes with PBS, before blocking with 2% (w/v) BSA in PBS. […] The reaction was stopped by the addition of HCl and the absorbance read at 450 nm.

[14] = target: T3, human IL-4; experiment: cell-based or functional assay
[15] = target: T3, human IL-4; experiment: IL-4 RBA: ELISA, IL-4R/Fc coated, biotinylated IL-4; remark: listed apart in the source
From the text: as §4

[16] = target: T3, human IL-4; experiment: cell-based or functional assay; remark: listed apart in the source
[17] = target: T3, human IL-4; experiment: DOM9 RBA (IL-4 RBA)
[18] = target: T1, human IL-13; experiment: IL-13 BIAcore binding assay
[19] = target: T1, human IL-13; experiment: cell-based or functional assay; remark: listed apart in the source
[20] = target: T1, human IL-13; experiment: DOM10 RBA (IL-13 sandwich ELISA per paragraph 473)
Description: as §2
These in-line fusions were constructed and expressed as described above. […] After this incubation, the level of cell proliferation was determined.

[21] = target: T1, human IL-13; experiment: IL-13 receptor binding assay by the legend; IL-13 sandwich ELISA by paragraph 465
[22] = target: T4, rhesus IL-4 (rhesus, UniProt P51492 25-153); experiment: inferred from TF-1 proliferation with rhesus IL-4
T4 sequence (looked up): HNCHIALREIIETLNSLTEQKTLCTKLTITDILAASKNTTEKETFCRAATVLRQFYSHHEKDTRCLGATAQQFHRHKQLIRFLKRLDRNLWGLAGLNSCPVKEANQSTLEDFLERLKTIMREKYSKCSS
Description: (§5) The mixture was incubated for 72 hours at 37° C. 5% CO₂. […] 96® reagent (colorometric reagent for determining viability, Promega, Madison, USA) was then added and the number of cells per well was quantified by measuring the absorbance at 490 nm.
(§6) A dose-response of the dAb will determine the ND50 in this set up.

[23] = target: T3, human IL-4; experiment: DOM9 RBA (IL-4 RBA); remark: listed apart in the source
From the text: as §4

[24] = target: T3, human IL-4; experiment: Biacore SPR, biotinylated IL-4 on SA chip, co-inject
Description: Analytes were passed over the antigen-coated flow-cell, with in-line referencing against a blank flow-cell, at a flow rate of 30 μl/min in HBS-EP running buffer (Biacore). The first dAb was injected, followed immediately by injection of the second dAb using the Biacore's co-inject function.

[25] = target: T5, cynomolgous IL-4 (cynomolgous, UniProt P79339 25-153); experiment: inferred from TF-1 proliferation with cynomolgous IL-4
T5 construct: also called Cyno IL-4
T5 sequence: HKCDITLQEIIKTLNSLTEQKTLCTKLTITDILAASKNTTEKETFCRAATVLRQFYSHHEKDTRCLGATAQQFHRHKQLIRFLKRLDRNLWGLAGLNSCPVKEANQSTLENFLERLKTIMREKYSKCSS
Description: as §5, §6

[26] = target: T3, human IL-4; experiment: screening of the affinity maturation output; IL-4 RBA and cell assay

T2 sequence (Q0PW92 entry or part of it limits assumed, form in doubt): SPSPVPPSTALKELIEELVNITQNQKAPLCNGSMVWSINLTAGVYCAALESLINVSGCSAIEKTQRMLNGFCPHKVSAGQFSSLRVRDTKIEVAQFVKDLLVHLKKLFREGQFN
T1 sequence (P35225 35-146 limits assumed): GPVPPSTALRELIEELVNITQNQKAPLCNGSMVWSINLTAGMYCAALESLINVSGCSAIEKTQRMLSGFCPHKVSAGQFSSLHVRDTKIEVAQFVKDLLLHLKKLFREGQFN
Sequence of variant IL-13 (R130Q) (human), P35225 (P35225 35-146, stated change not applied): as the sequence (P35225 35-146 limits assumed) above

B1: DOM10-53-316 (other)
VH: GVQLLESGGGLVQPGGSLRLSCAASGFIFAWYDMGWARQAPGKGLEWVSSIDWHGEVTYYADSVKGRFTISRDNSKNTLYLQMNSLRAEDTAVYYCATAEDEPGYDYWGQGTLVTVSS
notes: VH dAb
Q: What does the source list for B1?
A: IC50, TF-1 proliferation with variant IL-13 (R130Q) [1]: 0.52 nM; IC50 [2]: 1.2 nM; IC50 [3]: 2 nM; IC50, TF-1 proliferation with human IL-13 [4]: 0.39 nM

B2: DOM10-53-386 (other)
VH: GVQLLESGGGLVQPGGSLRLSCAASGFIFAWYDMGWVRQAPGKGLEWVSSIDWHGKITYYADSVKGRFTISRDNSKNTLYLQMNSLRAEDTAVYYCATAEDEPGYDYWGQGTLVTVSS
notes: VH dAb
Q: Does B2 bind [5]?
A: Result: binds

B3: DOM10-53-474 (other)
VH: GVQLLESGGGLVQPGGSLRLSCAASGFTFAWYDMGWVRQAPGKGLEWVSSIDWHGEVTYYADSVKGRFTISRDNSKNTLYLQMNSLRAEDTAVYYCATAEDEPGYDYWGQGTLVTVSS
notes: VH dAb
Q: With B3 as the binder, how does the EC50 [6] read?
A: Its EC50 is 0.023 nM.

Q: And the Kd [7]?
A: Its Kd is 0.028 nM.

Q: What about the “EC50, HEK293 STAT6 SEAP reporter assay, hIL-13” value [8] of the same binder?
A: Its value is 0.63 nM.

Q: And the “EC50, HEK293 STAT6 SEAP reporter assay, cIL-13” value [9]?
A: The value was 11.1 nM.

Q: And the Kd [10]?
A: The Kd was 2 nM.

B4: DOM10-176-535 (other)
VL: DIQMTQSPSSLSASVGDRVTITCRASQWIGPYLNWYQQKPGKAPKPLIYMGYWAPSGVPSRFSGSGSGTDFTLTISSLQPEDFATYYCQQDLYPPFTFGQGTKVEIKR
notes: Vk dAb
Q: How did the IC50 [6] turn out when B4 was run?
A: Its IC50 is 1 nM.

Q: What about the IC50, TF-1 proliferation with variant IL-13 (R130Q) [1] of the same binder?
A: Its IC50, TF-1 proliferation with variant IL-13 (R130Q) is 7.8 nM.

Q: And the IC50 [2]?
A: The IC50 was 7.9 nM.

Q: And the “ND50, IL-13 induced TF-1 cell proliferation” value [11]?
A: The value was 0.77 nM.

Q: And the IC50 [12]?
A: The IC50 was roughly 0.5 nM.

Q: And the “IC50, TF-1 proliferation with human IL-13” value [4]?
A: The value was 6 nM.

B5: DOM9-44-502 (other)
VL: DIQMTQSPSSLSASVGDRVTITCRASQNINFWLRWYQQKPGKAPTLLIYDASRSQSGVPSRFSGSGSGTDFTLTISSLQPEDFATYYCQQDLMPPYTFGQGTKVEIKR
notes: Vk dAb
Q: How did the IC50 [13] turn out when B5 was run?
A: Its IC50 is 4 nM.

Q: And the “ND50, IL-4 induced TF-1 cell proliferation” value [14]?
A: The value was 4.5 nM.

Q: And the IC50 [15]?
A: Its IC50 is 5.5 nM and 8.6 nM and 4.1 nM and 3.6 nM.

Q: And the “average inhibition of HDM induced PBMC proliferation, 100 nM dAb, responding donors” value [16]?
A: The value was 38%.

B6: DOM9-112-210 (other)
VH: EVQLLESGGGLVQPGGSLRLSCAASGFTFRNFGMGWVRQAPGKGLEWVSWIISSGTETYYADSVKGRFTISRDNSKNTLYLQMNSLRAEDTAVYYCAKSLGRFDYWGQGTLVTVSS
notes: VH dAb
Q: With B6 as the binder, how does the IC50 [17] read?
A: The IC50 was 0.391 nM.

Q: And the IC50 [15]?
A: Its IC50 is 0.144 nM.

B7: DOM10-275-1 (other)
VH: EVQLLESGGGLVQPGGSLRLSCAASGFTFDREEMDWVRQAPGKGLEWVSTISPSGRKTYYADSVKGRFTISRDNSKNTLYLQMNSLRAEDTAVYYCAKAYTGFDYWGQGTLVTVSS
notes: VH dAb
Q: What does the source list for B7?
A: IC50 [6]: 38 nM; Kd [18]: 25 nM and 28 nM and 27 nM; IC50, IL-13 cell binding assay (so in the source) [19]: 37 nM; IC50 [20]: 31.3 nM

B8: DOM10-275-78 (other)
VH: EVQLLESGGGLVQPGGSLRLSCVASGFTFDVAEMDWVRQAPGKGLEWVSTISPSRRGTYYADSVKGRFTISRDNSKNTLYLQMNSLRAEDTAVYYCAKAYTGRSLWGPGTLVTVSS
notes: VH dAb
Q: For B8, which Kd [7] is on record?
A: The Kd was 0.072 to 0.1 nM.

Q: And the “EC50, HEK293 STAT6 SEAP reporter assay, hIL-13” value [8]?
A: The value was 2.5 nM.

Q: What about the “EC50, HEK293 STAT6 SEAP reporter assay, cIL-13” value [9] of the same binder?
A: The value was 1.4 nM.

Q: And the Kd [10]?
A: Its Kd is 0.32 to 0.75 nM.

B9: DOM9-112 (ASTKGPS) DOM10-53-344 (bispecific antibody)
chain: EVQLLESGGGLVQPGGSLRLSCAASGFTFRNYGMAWVRQAPGKGLEWVSWIDASGTETYYADSVKGRFTISRDNSKNTLYLQMNSLRAEDTAVYYCAKSLGRFDYWGQGTLVTVSSASTKGPSGVQLLESGGGLVQPGGSLRLSCAASGFIFAWYDMGWVRQAPGKGLEWVSSIDWHGEVTYYADSVKGRFTISRDNSKNTLYLQMNSLRAEDTAVYYCATAEDEPGYDYWGQGTLVTVSS
notes: in-line fusion of two VH dAbs; also called dual specific ligand
Q: With B9 as the binder, how does the IC50 [13] read?
A: The IC50 was roughly 1 nM.

Q: And the IC50 [21]?
A: Its IC50 is 0.12 nM.

B10: DOM9-155-78 (other)
VL: DIQMTQSPSSLSASVGDRVTITCRASRHIGDWLHWYQQKPGKAPKLLIAWASTLDSGVPSRFSGSGSGTDFTLTISSLQPEDFATYYCLQEGWGPPTFGQGTKVEIKR
notes: Vk dAb
Q: Which results are given for B10?
A: IC50 [17]: 0.456 nM; binding result [22]: binds; IC50 [23]: 0.41 nM

B11: DOM9-155-1 (other)
VL: DIQMTQSPSSLSASVGDRVTITCRASLDIGDWLHWYQQKPGKAPKLLIGWGSGLQSGVPSRFSGSGSGTDFTLTISSLQPEDFATYYCLQEGWGPPTFGQGTKVEIKR
notes: Vk dAb
Q: Does B11 bind [24]?
A: Result: binds

B12: DOM9-155-25 (other)
VL: DIQMTQSPSSLSASVGDRVTITCRASRPISDWLHWYQQKPGKAPKLLIAWASTLDSGVPSRFSGSGSGTDFTLTISSLQPEDFATYYCLQEGWGPPTFGQGTKVEIKR
notes: Vk dAb
Q: Which results are given for B12?
A: binding result [22]: binds; IC50 [15]: 0.73 nM and 1 nM; binding result [25]: binds

B13: DOM9-155-77 (other)
VL: DIQMTQSPSSLSASVGDRVTITCRASRHISDWLHWYQQKPGKAPKLLIPWASGLWSGVPSRFSGSGSGTDFTLTISSLQPEDFATYYCLQEGWGPPTFGQGTKVEIKR
notes: Vk dAb
Q: Does B13 bind [26]?
A: Result: binds

Q: Does B13 bind [22]?
A: Result: binds
